The values that follow come from patent publication US20140274766A1, “METHODS OF USING F-SPONDIN AS A BIOMARKER FOR CARTILAGE DEGENERATIVE CONDITIONS AND BONE DISEASES” (priority 2009, published 2014).

The test system of one experiment is chick chondrocytes. Put plainly: Alkaline phosphatase (AP) activity in RA-stimulated chick chondrocyte cultures. It is filed as cell-based. The conditions noted are these: F-Spondin 1 ug/ml with RA, 3 days. Here is the method:
FIG. 16. Inhibition of F-spondin decreases AP activity in RA stimulated cultures. Chick chondrocytes were treated with RA at 100 nm for 5 days with and without F-spondin antibodies and AP activity assessed. Antibodies with specificities to the spondin domain (medium grey) and TSR domain (black) inhibited AP activity compared to ctrl (noAb) (light grey). Note the greater inhibitory effect of the TSR domain antibody. * p=<0.05 versus no ab ctrl.
FIG. 17. The pro-maturation effect of F-spondin is not inhibited following neutralization of TGF-β activity by coculture with Latency Associated Peptide (LAP). AP activity was determined in chick chondrocyte cultures by ELISA following RA stimulation for 3 days. Cultures were either ctrl (RA only) or RA with either F-Spondin (1 ug/ml) or LAP (10 or 100 ng/ml), or RA with F-Spondin (1 ug/ml) and LAP (10 or 100 ng/ml) in combination.
FIG. 18. Blocking αvβ3 integrin inhibits the promaturation effect of F-spondin. Chondocyte cultures were transfected as previously and stimulated with RA for 3 days in the presence of IgG control, or αvβ3 blocking antibodies prior to assay for AP activity. Inhibition of αvβ3 led to a ˜50% suppression of F-spondin-induced AP activity but had no effect on baseline AP activity (vector ctrl).
FIGS. 23A, 23B and 23C. F-spondin regulation of chondrocyte maturation requires the TSR domain. (A) Schematic representation of F-spondin protein domains and plasmid constructs encoding either full length (FS1) or TSR domain truncated (FS6) cDNAs. (B) Relative AP activity of FS or pcDNA3 control transfected cultures after 5 days treatment. (C) Relative AP activity following inhibition of F-spondin protein domains. Upper sternal chondrocytes were stimulated with 0, 10, 35 or 100 nM retinoic acid (RA) for 5 days in culture. […]
We next determined that the pro-maturation effect of F-spondin is not inhibited following neutralization of TGF-β activity by coculture with Latency Associated Peptide (LAP) (R&D Systems, Cat No 246-LP/CF). […] AP activity was determined in chick chondrocyte cultures by ELISA following RA stimulation for 3 days. […]

For another experiment, the system named is embryonic mouse tibia. As to the kind of experiment: Embryonic mouse tibia organ culture ex vivo (growth, staining, histology). Here is the method: FIGS. 20A, 20B and 20C. F-spondin regulates bone growth and morphology in mouse tibial organ cultures. Longitudinal growth and histological analysis of embryonic mouse tibia after 7 days of culture ex vivo. Tibia were treated with recombinant F-spondin FS (1 mg/ml) or an anti-F-spondin, TSR-domain specific (R1) antibody. (A) Representative images of whole tibia stained with alcian blue (proteoglycans) and alizarin red (mineral). (B) Tibial growth was measured after 7 days of organ culture and expressed as percent of original length at day 0. Average growth for control cultures has been set to 100% (C) H&E stained sections of corresponding limbs after 7 days treatment. Arrows indicate hypertrophic chondrocytes in the […] growth plate.
All animal experiments were conducted according to the guidelines of the Institutional Animal Care and Use Committee (IACUC) of New York University. […] After 12 hours, tibiae were placed in 24-well Falcon plates and initial longitudinal length was measured using a stereomicroscope. […] (purchased from R&D Systems, Minneapolis, Minn. (Cat No AF3135). Media was changed every 24 hours beginning on day one, and tibial length was measured again at the end of one week. The results were expressed as percentage changes in length relative to day one. […]

B1: F-spondin: 110 kDa, secreted, heparin-binding extracellular matrix glycoprotein; used as recombinant protein (R&D systems) or transfected-cell supernatant (protein, UniProt Q9HCB6 29-807, looked up)
Spondin-1: FSDETLDKVPKSEGYCSRILRAQGTRREGYTEFSLRVEGDPDFYKPGTSYRVTLSAAPPSYFRGFTLIALRENREGDKEEDHAGTFQIIDEEETQFMSNCPVAVTESTPRRRTRIQVFWIAPPAGTGCVILKASIVQKRIIYFQDEGSLTKKLCEQDSTFDGVTDKPILDCCACGTAKYRLTFYGNWSEKTHPKDYPRRANHWSAIIGGSHSKNYVLWEYGGYASEGVKQVAELGSPVKMEEEIRQQSDEVLTVIKAKAQWPAWQPLNVRAAPSAEFSVDRTRHLMSFLTMMGPSPDWNVGLSAEDLCTKECGWVQKVVQDLIPWDAGTDSGVTYESPNKPTIPQEKIRPLTSLDHPQSPFYDPEGGSITQVARVVIERIARKGEQCNIVPDNVDDIVADLAPEEKDEDDTPETCIYSNWSPWSACSSSTCDKGKRMRQRMLKAQLDLSVPCPDTQDFQPCMGPGCSDEDGSTCTMSEWITWSPCSISCGMGMRSRERYVKQFPEDGSVCTLPTEETEKCTVNEECSPSSCLMTEWGEWDECSATCGMGMKKRHRMIKMNPADGSMCKAETSQAEKCMMPECHTIPCLLSPWSEWSDCSVTCGKGMRTRQRMLKSLAELGDCNEDLEQVEKCMLPECPIDCELTEWSQWSECNKSCGKGHVIRTRMIQMEPQFGGAPCPETVQRKKCRIRKCLRNPSIQKLRWREARESRRSEQLKEESEGEQFPGCRMRPWTAWSECTKLCGGGIQERYMTVKKRFKSSQFTSCKDKKEIRACNVHPC
Consider B1, for which the AP activity entry in the experiment with chick chondrocytes is given as “increase”. In addition, in the experiment with embryonic mouse tibia (7 days culture, compared to untreated limbs), the alizarin red staining result is on record as “slight increase”. For the same molecule, in the experiment on embryonic mouse tibia (growth plate cartilage adjacent to mineralized core), the “number of hypertrophic chondrocytes (H&E)” value is listed as “increased numbers”.
